For series [1], the target named is T1, Factor VII/VIIa (FVII HP, plasma-derived) (Homo sapiens, UniProt P08709;P08709 P08709:61-212,P08709:213-466). In words: SPR; FVII immobilized; 10 mM CaCl2, 4 mM MgCl2, pH 7.4; eluted by 5 mM EDTA. Particulars: tags: none; purified from human plasma (98-99% purity). On the procedure: Each sample was injected sequentially onto the same chip (solid substrate) containing the immobilized human FVII. Controls were obtained by injecting blanks containing only running buffer. All the injections were carried out with a flow rate of 30 μl/min for 60 sec; after the injection, running buffer was injected onto the chip at an identical flow rate, for 120 sec. Elution buffer (5 mM EDTA) was then injected for 60 sec with a flow rate of 30 μl/min in order to detach the […]. The chip makes it possible to study, in real time, the formation and the breaking of the interactions between the immobilized human FVII and each of the aptamers Mapt2, Mapt3 and Mapt7 tested, by means of surface plasmon resonance (SPR). Binding to the immobilized human FVII is reflected by an increase in the signal, in resonance units (RU), recorded by the apparatus (FIG. 2). These analyses are carried out with the RPS Biacore T100 apparatus (GE). The modeling of the interactions recorded is carried out using the Biaevaluation software (GE).
A general note: In SPR one partner is held on a chip, and binding of the other changes the refractive index at the surface.

Series [2] has as its target T1, Factor VII/VIIa (FVII HP, …). In words: SPR; FVII immobilized, aptamer 1 uM; much higher affinity than other family 2 members; 10 mM CaCl2, 4 mM MgCl2, pH 7.5. The conditions noted are these: tags: none; purified from human plasma (98-99% purity). On the procedure:
A series of 27 nucleic aptamers of the invention (purity: 99%), having a length ranging from 43 to 66 nucleotides depending on the aptamers, were diluted in running buffer (50 mM Tris, 50 mM NaCl, 10 mM CaCl₂, 4 mM MgCl₂, pH 7.5) so as to obtain three aptamer samples. Each aptamer tested was injected at a final concentration of 1 μM in the running buffer.
Each sample was injected sequentially onto the same chip (solid substrate) containing the immobilized human FVII. Controls are obtained by injecting blanks containing only running buffer. All the injections were carried out with a flow rate of 30 μl/min for 60 sec; after the injection, running buffer was injected onto the chip at an identical flow rate, for 120 sec. Elution buffer (5 mM EDTA) was then injected for 60 sec with a flow rate of 30 μl/min in order to detach the aptamer from the immobilized human FVII. The chip makes it possible to study, in real time, the formation and the breaking of the interactions between the immobilized human FVII and each of the aptamers tested, by means of surface plasmon resonance (SPR). Binding to the immobilized human FVII is reflected by an increase in the signal, in resonance units (RU), recorded by the apparatus (figure E1). These analyses are carried out with the RPS Biacore T100 apparatus (GE). The modeling of the interactions recorded is carried out using the Biaevaluation software (GE).

For series [3] the target is unchanged. In words: pulldown; affinity chromatography on streptavidin gel; CaCl2/MgCl2 buffer pH 7.5, eluted with 10 mM EDTA; Mapt2 core in low affinity group by SPR (Example 11). The conditions noted are these: tags: none; purified from human plasma (98-99% purity); label: 5'-biotin. On the procedure:
Gel equilibration: 0.050 M Tris-HCl, 0.010 M CaCl₂, 0.05 mM MgCl₂, pH 7.5, elution: 0.020 M Tris-HCl, 0.010 M EDTA, pH 7.5, 240 μg of human plasma FVII purified to 98% is injected with a flow rate of 0.5 ml/min in equilibration buffer.

Series [4] deals with Factor VII, rabbit plasma (hydroxyapatite eluate) (Oryctolagus cuniculus, UniProt P98139;P98139 P98139:40-191,P98139:192-444). In words: pulldown; affinity chromatography; 0.2% step yield in eluate, rabbit FVII not retained. The conditions noted are these: tags: enriched from rabbit plasma; label: 5'-biotin. On the procedure: Gel equilibration: 0.050 M Tris-HCl, 0.010 M CaCl₂, 0.05 mM […], pH 7.5, elution: 0.050 M Tris-HCl, 0.010 M EDTA, pH 7.5, 36 μg are injected into the gel with a contact time of 10 minutes. The elution is carried out by injecting 2 ml of elution buffer.
The fractions are analyzed for their amidolytic activity by chromogenic assay using a Stago kit according to the supplier's recommendations (factor VIIa StatClot kit). The amidolytic activity is then converted to pg of FVII contained in said fraction.

The target of series [5] is Factor VII, recombinant rabbit (Oryctolagus cuniculus, UniProt P98139;P98139 P98139:40-191,P98139:192-444). In words: SPR; no binding to rabbit FVII/VIIa. The conditions noted are these: label: 5'-biotin. Here is the method: Each sample was injected sequentially onto the same chip (solid substrate) containing the Mapt2 aptamer immobilized by means of a biotin-streptavidin interaction. Controls are obtained by injecting blanks containing only running buffer. Signals corresponding to the background noise are obtained by injecting the same samples onto the reference cell containing the immobilized some nucleic acids or other, these signals are subtracted from the signals obtained on the active cell. All the injections were carried out with a flow rate of 30 μl/min for 60 sec; after the injection, running buffer was injected onto the chip at an identical flow rate, for 120 sec. Elution buffer (15 mM EDTA) was then injected for 30 sec with a flow rate of 30 μl/min in order to detach the human or rabbit FVII from the aptamer. The chip makes it possible to study, in real time, the formation and the breaking of the interactions between the FVII HP and the immobilized aptamer by means of surface plasmon resonance (SPR). Binding to the immobilized aptamer is reflected by an increase in the signal, in resonance units (RU), recorded by the apparatus (FIG. 8). These analyses are carried out with the RPS Biacore T100 apparatus (GE).
The modeling of the interactions recorded is carried out using the Biaevaluation software (GE).

The target in series [6] is T1, Factor VII/VIIa (FVII HP, …). In words: SPR; aptamer immobilized; 50 mM Tris, 50 mM NaCl, 10 mM CaCl2, 4 mM MgCl2, pH 7.4; about 1:1 stoichiometry (Example 4). The conditions noted are these: tags: none; purified from human plasma (98-99% purity); label: 5'-biotin.

What is called Kd is the equilibrium constant for the complex coming apart.

For the molecule CCGGAGACGCGCAGCTCCTATACATGCGCACATGACTTGAAGTC (ssDNA) [Mapt3], the binding result in series [1] is given as “binds”.

As to CCGCACGCTACGCGCATGAACCCGCGCACACGACTTGAAGTAGC (ssDNA) [Mapt2.2 core sequence], the binding result in series [2] is listed as “binds”. For CCGCACACCACGCGCATAATCCCGCGCACACGACTTGAAGTAGC (ssDNA, 5'-biotin without spacer) [Mapt-2 core (5'-biotin)], the binding result in series [3] is given as “binds”. As to AGTCTCCATGTTGCGAACCGAATGGTAAGGGGATCGTACACTAC (ssDNA) [Mapt7], the binding result in series [1] was “binds”.

B1: Mapt2 (biotin-PEG) (ssDNA)
DNA: GGGAGATAGCCACGACCTATGCAGCCAGCCGCAGTGTAAGTGAATGCAGACATGGTCTAAGTGTCCAGGCTGTGCGAAAGC
modifications: 5' spacer of 4 PEG(C18) and terminal biotin
For B1, the binding result in series [4] and in series [5] was “no binding” each time. Besides, binding in series [6] was characterised by a dissociation constant (Kd) of 0.0999 µM.

B2: Mapt2 (ssDNA)
DNA: B1 DNA
Consider B2, for which the binding result in series [1] is on record as “binds”.

The values above are taken from patent US20120041056A1, “NUCLEIC ACIDS SPECIFICALLY BINDING WITH HUMAN FACTOR VII/VIIA AND USES THEREOF” (LFB BIOTECHNOLOGIES, published 2012).
